From patent publication US20210292393A1 (published 2021)
Residue numbers refer to the chain shown, from its start.

B1: anti-SARS-CoV-2 antibody 475 (antibody, V domains shown)
VH: QVQLVESGGGVVQPGRSLRLSCAASGFTFSSYAMHWVRQAPGKGLEWVTFISHEGSNKYYADSVKGRFTISRDNSKNTLYLQMNSLRAEDTAVYYCARTFEYSSSSATGDFDYWGQGTLVTVSS
VL: QSVLTQPPSVSGAPGQRVTISCTGSSSNIGAGYDVHWYQQLPGTAPKLLIYGNSNRPSGVPDRFSGSKSGTSASLAITGLQAEDEADYYCQSYDSSLSGVVFGGGTKLTVL
B2: anti-SARS-CoV-2 antibody 476 (antibody, V domains shown)
VH: QVQLVQSGSELKKPGASVKVSCKASGYTFTSYAMNWVRQAPGQGLEWMGWINTNTGNPTYAQGFTGRFVFSLDTSVSTAYLQISSLKAEDTGVYYCARDHELPNSSSWFGHFEYWGQGTLVTVSS
VL: SYELTQPPSVSVSPGQTARITCSGDALPKQYAYWYQQKAGQAPVLVIYKDSERRSGIPERFSGSSSGTTVTLTISGVQAEDEADYYCQSADSSGTSVVFGGGTKLTVL
B3: anti-SARS-CoV-2 antibody 471 (antibody, V domains shown)
VH: QVQLVESGGGVVQPGRSLRLSCAASGFTFSSYAMHWVRQAPGKGLEWVAVISYDGSNKYYADSVKGRFTISRDNSKNTLYLQMNSLRAEDTAVYYCAKQYSPYCSGGSCYSGASDYWGQGTLVTVSS
VL: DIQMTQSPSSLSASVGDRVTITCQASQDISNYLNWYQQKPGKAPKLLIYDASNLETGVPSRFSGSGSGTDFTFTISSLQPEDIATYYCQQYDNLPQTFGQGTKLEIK
B4: anti-SARS-CoV-2 antibody 496 (antibody, V domains shown)
VH: QVQLVQSGAEVKKPGASVKVSCKASGYTFTDYYIHWVRQAPGQGLEWMGWINPNSGGTNYAQKFQGRLTMTRDTSISTAYMELSRLRSDDTAVYYCARVYSMFREFIINPYYYYYGLDVWGQGTTVTVSS
VL: QSALTQPASVSGSPRQSITISCTGTSSDVGSYNLVSWYQQHPGKAPKLMIYEGSKRPSGVSNRFSGSKSGNTASLAISGLQAEDEANYYCCSYAGSSTLVFGGGTKLTVL
B5: anti-SARS-CoV-2 antibody 456 (antibody, V domains shown)
VH: QVQLQQWGAGLLKPSETLSLTCAVYGGSFSGYYWSWIRQPPGKGLEWIGEINHSGSTNYNPSLKSRVTISVDTSKNQFSLKLSSVTAADTAVYYCARDGSGSYYLSYYFDYWGQGTLVTVSS
VL: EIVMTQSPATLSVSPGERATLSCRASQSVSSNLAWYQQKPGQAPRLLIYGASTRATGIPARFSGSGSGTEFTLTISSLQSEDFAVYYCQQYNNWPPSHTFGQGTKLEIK
B6: anti-SARS-CoV-2 antibody 497 (antibody, V domains shown)
VH: QVQLQESGPGLVKPSQTLSLTCTVSGGSINSFGYYWSWIRQHPGKGLEWIGYIYYSGSTDYNPSLNSRVTISLDTSKNQFLLKLTSVTAADTAVYYCAKLTDYYDSSGYSFDYWGQGTLVTVSS
VL: DIQMTQSPSSVSASVGDRVTITCRASQDISRWLAWYQQKPGKAPKLLIYAASSLQSGVPSRFSGRGSGTELTLTISSLQPEDFATYFCQQAYSFPFTFGGGTKVEIK
B7: anti-SARS-CoV-2 antibody 477 (antibody, V domains shown)
VH: QVQLVESGGGVVQPGRSLRLSCAASGITFSSYAMHWVRQAPGKGLEWVAVISYDGSDKYHADSVKGRFAISRDNSKNTLYLQMNSLRAEDTAVYYCAKDKGIAVAGTGWIRPDPEYYFDYWGQGTLVTVSS
VL: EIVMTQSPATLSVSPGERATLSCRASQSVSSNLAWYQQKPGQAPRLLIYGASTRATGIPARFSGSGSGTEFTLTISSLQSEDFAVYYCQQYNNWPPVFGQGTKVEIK
B8: anti-SARS-CoV-2 antibody 470 (antibody, V domains shown)
VH: not shown
VL: B4 VL with R15G, G53V, A76T, N87D
B9: anti-SARS-CoV-2 antibody 492 (antibody, V domains shown)
VH: QVQLVESGGGVVQPGRSLRLSCAASGFTFSSYGMHWVRQAPGKGLEWVAVISYDGSNKYYADSVKGRFTISRDNSKNTLYLQMNSLRAEDTAVYYCAKDGILWWWWGYFDYWGQGTLVTVSS
VL: QSVLTQPPSVSGAPGQRVTISCTGSSSNIGAGFDVHWYQQLPGTAPKLLIYGNSNRPSGVPDRFSGSKSGTSASLAITGLQAEDEADYYCQSYDSSLSVVFGGGTKLTVL
B10: anti-SARS-CoV-2 antibody 480 (antibody, V domains shown)
VH: QVQLVESGGGVVQPGRSLRLSCAASGFTFSSYAMHWVRQAPGKGLEWVAVISYDGNNKYYADSVKGRFTISRDNSKNTLYLQMNSLRAEDTAVYYCVRTNSGSYYAAFDYWGQGTLVTVSS
VL: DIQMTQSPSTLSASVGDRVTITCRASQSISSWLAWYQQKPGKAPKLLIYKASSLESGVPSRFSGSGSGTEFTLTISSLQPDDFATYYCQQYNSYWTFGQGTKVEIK
B11: antibody 420 (antibody, V domains shown)
VH: QVQLVESGGGVVQPGRSLRLSCAASGFTFSSYGMHWVRQAPGKGLEWVAVIWYDGSNKYYADSVKGRFTISRDNSKNTLYLQMNSLRAEDTAVYYCAKDGGDYGDVNFDYWGQGTLVTVSS
VL: B2 VL with A39P, R54P, D91G, T95N, S96Y, V97K
B12: antibody 395 (antibody, V domains shown)
VH: QVQLVQSGSELKKPGASVKLSCQASGYTFSNHAMNWVRQAPGQGLEWMGWINTNTGNPTYAQGFTGRFVFSLDTSVGTAYLHISSLKAEDTAFYYCARASARPGVATNLDFWGQGTLVVVSS
VL: DIQMTQSPSSLSASVGDRVTITCRTSQNIDNYLNWYQQKPGKAPNLLIYAASRLHSGVPSRFSGSGSGTDFTLIISSLQPEDLATYYCQQSYSNPLTFGPGTKVDIR
B13: antibody 421 (antibody, V domains shown)
VH: QVQLVESGGGVVQPGRSLRLSCAASGFTFSTYAMHWVRQAPGKGLEWVAVISYDGSNKYYADSVKGRFTISRDNSKNTLYLQMNSLRAEDTAVYYCARGYGSGSYYPLYLYWGQGTLVTVSS
VL: not shown
B14: antibody 409 (antibody, V domains shown)
VH: QVTLRESGPALVKPTQTLTLTCTFSGFSLSTSGMCVSWIRQPPGKALEWLALIDWDDDKYYSTSLKTRLTISKDTSKNQVVLTMTNMDPVDTATYYCARTTYYYVSGRRAEFDPWGQGTLVTVSS
VL: NFMLTQPHSVSESPGKTVTISCTGSSGSIASNYVQWYQQRPGSAPTTVIYEDNQRPSGVPDRFSGSIDSSSNSASLTISGLKTEDEADYYCQSYDSSNQGVFGGGTKLTVL
B15: antibody 405 (antibody, V domains shown)
VH: not shown
VL: QSALTQPRSVSGSPGQSVTISCTGTSSDVGGYNYVSWYQQHPGKAPKLMIYDVSKRPSGVPDRFSGSKSGNTASLTISGLQAEDEADYYCCSYAGSYNVVFGGGTKLTVL
B16: antibody 422 (antibody, V domains shown)
VH: QVQLVQSGSELKKPGASVKVSCKASGYTFTSYAMNWVRQAPGQGLEWMGWINTNTGNPTYAQGFTGRFVFSLDTSVSTTYLQISSLKAEDTAVYYCARVIGVVTYYYYGMDVWGQGTTVTVSS
VL: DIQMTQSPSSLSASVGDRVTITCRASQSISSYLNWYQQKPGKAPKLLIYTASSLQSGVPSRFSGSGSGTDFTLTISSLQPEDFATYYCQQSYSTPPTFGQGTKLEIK
B17: antibody 385 (antibody, V domains shown)
VH: B10 VH with M34I, N56S, V97A, T99P, N100R, Y105W, A106G, Y110I, L116M
VL: B9 VL with G32R, F33Y, S98R, V99G
B18: antibody 566 (antibody, V domains shown)
VH: QVQLVQSGAEVKKPGASVKVSCKASGYTFTSYAMHWVRQAPGQRLEWMGWINAGNGNTKYSQKFQGRVTITRDTSASTAYMELSSLRSEDTAVYYCARDLGVAVTLHPADFDYWGQGTLVTVSS
VL: B1 VL with G52D, G99A
B19: antibody 565 (antibody, V domains shown)
VH: EVQLVESGGGLVQPGGSLRLSCTASGFTLSDHYMDWVRQAPGKGLEWVARTRNKVNSYSTEYAASVKGRFSMSRDDSKNSLYLQMTRLQTDDTAVYYCARSLMILGARGASDYWGQGTLVTVSS
VL: DIQMTQSPSTLSASAGDRVTITCRASQNIDSWLAWYQQHPGKAPNLLIYKASFLQSGVPSRFSGSGSGTEFTLTISSLQPDDFATYYCQQYNSYPVTFGQGTRLEIK
B20: antibody 571 (antibody, V domains shown)
VH: EVQLVESGGGLVQPGGSLRLSCAASGFTFSTYWMTWVRQAPGKGLEWVANIKHDGSGKYHVDSVKGRFTISRDNAKNSLYLQMNSLRAEDTAVYYCTRDEGGWYDYWGQGTLVTVSS
VL: QSALTQPASVSGSPGQSITISCTGTSSDVGSYNPVSWYQQHPGKAPKVMIYEGSKRPSGVSNRFSGSKSGNTASLTISGLQAEDEADYYCCSYARSSTFVVFGGGTKLTVL
B21: antibody 564 (antibody, V domains shown)
VH: QVHLVESGGGVVQPGKSLRLSCAASGFIFSSFGMHWVRQPPGKGLEWLAVVSYDGSVTKYSDSFEGRFTISRDNSKNTLYLQMDSLRPEDTAVYYCAKGQGTNLLHYWGQGILVTVSS
VL: DVVLSQSPLSLPVTLGQPASISCRSSESLVYTDGDTYLHWFHQRPGQSPRRLIFKVSHRESGVPDRISGSGSGTDFTLKISRVEAEDVGVYYCMQGTHWPFTFGPGTKVDIK
B22: antibody 569 (antibody, V domains shown)
VH: B10 VH with N56S, V97A, T99A, N100S, S103G, Y105Q, A106G, A107P, Y110P
VL: EIVLTQSPATLSLSPGERATLSCRASQSVSSYLAWYQQKPGQAPRLLIYDASNRATGIPARFSGSGSGTDFTLTISSLEPEDFAVYYCQQRSSPFGPGTKVDIK

What follows are binders tested against SARS-CoV-2 spike (S) protein, full length, wild type (SARS-CoV-2, UniProt P0DTC2 14-1208).

| Binder | median fluorescence fold over isotype [fold over isotype] |
| --- | --- |
| B1 | 683 |
| B2 | 902 |
| B3 | 770 |
| B4 | 1090 |
| B5 | 595 |
| B6 | 630 |
| B7 | 847 |
| B8 | 1180 |
| B9 | 664 |
| B10 | 690 |

These binders were tested against SARS-CoV-2 full length spike protein, wild type, expressed on the surface of transiently transfected CHO cells (SARS-CoV-2, UniProt P0DTC2 14-1273).

| Binder | median fluorescence fold over isotype control [fold over isotype] |
| --- | --- |
| B11 | 1.99 |
| B12 | 7.8 |
| B13 | 9.23 |
| B14 | 13.8 |
| B15 | 9.7 |
| B16 | 19.6 |
| B17 | 10.5 |

These binders were tested against SARS-CoV-2 full length spike (S) protein, wild type, expressed on the surface of CHO cells (SARS-CoV-2, UniProt P0DTC2 14-1273).

| Binder | median fluorescence intensity, fold over isotype control [fold over isotype] |
| --- | --- |
| B18 | 31.5 |
| B19 | 1.11 |
| B20 | 8.3 |
| B21 | 10.8 |
| B22 | 8.78 |
